Source: patent US20240376204A1

Biological target: human PVRIG expressed on cells (human) (UniProt Q6DKI7)
Experiment: cell-based or functional assay

Chain of human PVRIG expressed on cells (human) (Q6DKI7 41-326 limits assumed, form in doubt): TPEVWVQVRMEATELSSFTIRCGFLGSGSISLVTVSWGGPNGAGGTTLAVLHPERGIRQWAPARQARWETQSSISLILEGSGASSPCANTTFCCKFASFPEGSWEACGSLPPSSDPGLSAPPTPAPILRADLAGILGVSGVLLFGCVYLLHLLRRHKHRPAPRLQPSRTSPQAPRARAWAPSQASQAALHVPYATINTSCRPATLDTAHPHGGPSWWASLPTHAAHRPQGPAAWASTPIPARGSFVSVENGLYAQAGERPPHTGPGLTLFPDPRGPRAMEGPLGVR

hIgG4 isotype control (antibody)
IFNγ, mixed lymphocyte reaction, 20 nM antibody: 74 pg/mL | IFNγ, mixed lymphocyte reaction, 100 nM antibody: 89 pg/mL | Killing activity (%) of NK92 on K562, 4 nM antibody: 11.2% | Killing activity (%) of NK92 on K562, 20 nM antibody: 11.7% | Killing activity (%) of NK92 on K562, 100 nM antibody: 9.2%
